Results from the supplement of paper PMC10567573.

B1: ADAMTS4 (parent)
chain: HVDPEEPWSPCSARFITDFLDNGY
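Also: lentivirally expressed fusions sorted by FACS into six bins by GFP to DsRed ratio, PSI derived from sequencing read proportions per bin multiplied by bin number.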

Variants of: B1
Assay: protein stability index of a GFP-peptide fusion (GPS, HEK-293T) (PSI 1-6); higher = more stable
Conditions: c terminus: a fixed tail appended
Variant HVDPEEPWSPCKARFITDFLDNGY [S12K] has a protein stability index of 1.55.
In the case of HVDPEEPWSPCLARFITDFLDNGY [S12L], the protein stability index is reported as 2.12.
In the case of HVDPEEPWSPCMARFITDFLDNGY [S12M], the protein stability index is reported as 1.57.
In the case of HVDPEEPWSPCNARFITDFLDNGY [S12N], the protein stability index is reported as 2.05.
Variant HVDPEEPWSPCPARFITDFLDNGY [S12P] has a protein stability index of 1.4.
HVDPEEPWSPCQARFITDFLDNGY [S12Q] showed a protein stability index of 2.1.
For HVDPEEPWSPCRARFITDFLDNGY [S12R], the protein stability index was 1.97.
In the case of HVDPEEPWSPCTARFITDFLDNGY [S12T], the protein stability index is reported as 1.47.
With HVDPEEPWSPCVARFITDFLDNGY [S12V] the protein stability index was 2.01.
Work on HVDPEEPWSPCWARFITDFLDNGY [S12W] yielded a protein stability index of 1.67.
Variant HVDPEEPWSPCYARFITDFLDNGY [S12Y] has a protein stability index of 1.83.
For HVDPEEPWSPCSCRFITDFLDNGY [A13C], the protein stability index was 2.54.
HVDPEEPWSPCSDRFITDFLDNGY [A13D] showed a protein stability index of 2.35.
HVDPEEPWSPCSERFITDFLDNGY [A13E] showed a protein stability index of 2.1.
HVDPEEPWSPCSFRFITDFLDNGY [A13F] showed a protein stability index of 1.92.
In the case of HVDPEEPWSPCSGRFITDFLDNGY [A13G], the protein stability index is reported as 1.5.
HVDPEEPWSPCSHRFITDFLDNGY [A13H] showed a protein stability index of 1.85.
For HVDPEEPWSPCSIRFITDFLDNGY [A13I], the protein stability index was 2.19.
Variant HVDPEEPWSPCSKRFITDFLDNGY [A13K] has a protein stability index of 2.08.
Work on HVDPEEPWSPCSLRFITDFLDNGY [A13L] yielded a protein stability index of 1.88.
With HVDPEEPWSPCSMRFITDFLDNGY [A13M] the protein stability index was 2.18.
With HVDPEEPWSPCSNRFITDFLDNGY [A13N] the protein stability index was 2.33.
HVDPEEPWSPCSPRFITDFLDNGY [A13P] gave a protein stability index of 1.89.
With HVDPEEPWSPCSQRFITDFLDNGY [A13Q] the protein stability index was 1.97.
With HVDPEEPWSPCSRRFITDFLDNGY [A13R] the protein stability index was 1.87.
For HVDPEEPWSPCSSRFITDFLDNGY [A13S], the protein stability index was 1.89.
Variant HVDPEEPWSPCSTRFITDFLDNGY [A13T] has a protein stability index of 1.79.
With HVDPEEPWSPCSVRFITDFLDNGY [A13V] the protein stability index was 2.54.
HVDPEEPWSPCSWRFITDFLDNGY [A13W] gave a protein stability index of 1.95.
HVDPEEPWSPCSYRFITDFLDNGY [A13Y] gave a protein stability index of 1.67.
HVDPEEPWSPCSAAFITDFLDNGY [R14A] gave a protein stability index of 2.05.
With HVDPEEPWSPCSACFITDFLDNGY [R14C] the protein stability index was 1.66.
Variant HVDPEEPWSPCSADFITDFLDNGY [R14D] has a protein stability index of 2.45.
For HVDPEEPWSPCSAEFITDFLDNGY [R14E], the protein stability index was 2.58.
HVDPEEPWSPCSAFFITDFLDNGY [R14F] showed a protein stability index of 2.27.
HVDPEEPWSPCSAGFITDFLDNGY [R14G] showed a protein stability index of 2.15.
In the case of HVDPEEPWSPCSAHFITDFLDNGY [R14H], the protein stability index is reported as 1.84.
In the case of HVDPEEPWSPCSAIFITDFLDNGY [R14I], the protein stability index is reported as 2.28.
HVDPEEPWSPCSAKFITDFLDNGY [R14K] showed a protein stability index of 2.32.
With HVDPEEPWSPCSALFITDFLDNGY [R14L] the protein stability index was 2.13.
HVDPEEPWSPCSAMFITDFLDNGY [R14M] showed a protein stability index of 1.51.
HVDPEEPWSPCSANFITDFLDNGY [R14N] showed a protein stability index of 1.86.
HVDPEEPWSPCSAPFITDFLDNGY [R14P] showed a protein stability index of 1.87.
Variant HVDPEEPWSPCSAQFITDFLDNGY [R14Q] has a protein stability index of 2.
Variant HVDPEEPWSPCSASFITDFLDNGY [R14S] has a protein stability index of 2.02.
With HVDPEEPWSPCSATFITDFLDNGY [R14T] the protein stability index was 1.83.
Work on HVDPEEPWSPCSAVFITDFLDNGY [R14V] yielded a protein stability index of 1.56.
HVDPEEPWSPCSAWFITDFLDNGY [R14W] gave a protein stability index of 1.58.
For HVDPEEPWSPCSAYFITDFLDNGY [R14Y], the protein stability index was 1.71.
HVDPEEPWSPCSARAITDFLDNGY [F15A] showed a protein stability index of 1.94.
With HVDPEEPWSPCSARCITDFLDNGY [F15C] the protein stability index was 1.97.
With HVDPEEPWSPCSARDITDFLDNGY [F15D] the protein stability index was 2.47.
Work on HVDPEEPWSPCSAREITDFLDNGY [F15E] yielded a protein stability index of 2.65.
HVDPEEPWSPCSARGITDFLDNGY [F15G] showed a protein stability index of 2.71.
Work on HVDPEEPWSPCSARHITDFLDNGY [F15H] yielded a protein stability index of 1.98.
Variant HVDPEEPWSPCSARIITDFLDNGY [F15I] has a protein stability index of 1.71.
For HVDPEEPWSPCSARKITDFLDNGY [F15K], the protein stability index was 2.07.
HVDPEEPWSPCSARLITDFLDNGY [F15L] showed a protein stability index of 1.96.
Work on HVDPEEPWSPCSARMITDFLDNGY [F15M] yielded a protein stability index of 1.91.
HVDPEEPWSPCSARNITDFLDNGY [F15N] showed a protein stability index of 2.04.
HVDPEEPWSPCSARPITDFLDNGY [F15P] showed a protein stability index of 2.08.
With HVDPEEPWSPCSARQITDFLDNGY [F15Q] the protein stability index was 1.77.
With HVDPEEPWSPCSARRITDFLDNGY [F15R] the protein stability index was 2.25.
HVDPEEPWSPCSARSITDFLDNGY [F15S] gave a protein stability index of 1.88.
For HVDPEEPWSPCSARTITDFLDNGY [F15T], the protein stability index was 1.64.
For HVDPEEPWSPCSARVITDFLDNGY [F15V], the protein stability index was 1.91.
Work on HVDPEEPWSPCSARWITDFLDNGY [F15W] yielded a protein stability index of 1.64.
For HVDPEEPWSPCSARYITDFLDNGY [F15Y], the protein stability index was 2.01.
Work on HVDPEEPWSPCSARFATDFLDNGY [I16A] yielded a protein stability index of 2.13.
HVDPEEPWSPCSARFCTDFLDNGY [I16C] showed a protein stability index of 1.59.
In the case of HVDPEEPWSPCSARFDTDFLDNGY [I16D], the protein stability index is reported as 1.94.
For HVDPEEPWSPCSARFETDFLDNGY [I16E], the protein stability index was 2.33.
HVDPEEPWSPCSARFFTDFLDNGY [I16F] showed a protein stability index of 1.63.
With HVDPEEPWSPCSARFGTDFLDNGY [I16G] the protein stability index was 2.27.
In the case of HVDPEEPWSPCSARFHTDFLDNGY [I16H], the protein stability index is reported as 1.72.
Work on HVDPEEPWSPCSARFKTDFLDNGY [I16K] yielded a protein stability index of 1.73.
HVDPEEPWSPCSARFLTDFLDNGY [I16L] showed a protein stability index of 1.67.
HVDPEEPWSPCSARFMTDFLDNGY [I16M] gave a protein stability index of 1.69.
Variant HVDPEEPWSPCSARFNTDFLDNGY [I16N] has a protein stability index of 2.19.
Variant HVDPEEPWSPCSARFPTDFLDNGY [I16P] has a protein stability index of 1.81.
Work on HVDPEEPWSPCSARFQTDFLDNGY [I16Q] yielded a protein stability index of 2.07.
With HVDPEEPWSPCSARFRTDFLDNGY [I16R] the protein stability index was 2.84.
With HVDPEEPWSPCSARFSTDFLDNGY [I16S] the protein stability index was 1.98.
For HVDPEEPWSPCSARFTTDFLDNGY [I16T], the protein stability index was 1.74.
With HVDPEEPWSPCSARFVTDFLDNGY [I16V] the protein stability index was 1.97.
HVDPEEPWSPCSARFWTDFLDNGY [I16W] gave a protein stability index of 1.55.
HVDPEEPWSPCSARFYTDFLDNGY [I16Y] showed a protein stability index of 1.89.
HVDPEEPWSPCSARFIADFLDNGY [T17A] gave a protein stability index of 1.87.
For HVDPEEPWSPCSARFICDFLDNGY [T17C], the protein stability index was 2.04.
In the case of HVDPEEPWSPCSARFIDDFLDNGY [T17D], the protein stability index is reported as 1.81.
HVDPEEPWSPCSARFIEDFLDNGY [T17E] gave a protein stability index of 1.57.
In the case of HVDPEEPWSPCSARFIFDFLDNGY [T17F], the protein stability index is reported as 1.41.
With HVDPEEPWSPCSARFIGDFLDNGY [T17G] the protein stability index was 1.71.
In the case of HVDPEEPWSPCSARFIHDFLDNGY [T17H], the protein stability index is reported as 2.05.
